Reference: PMC6310021 (Science translational medicine, 2018)
Where two headings read alike, the source gives them in different places. Blank lines part the entries; values can stand above or below the binder they belong to.

Columns and labels:
[1] = molecular target: transgelin-2 (TG2) of rat airway smooth muscle cells (rat (endogenous in rat ASMCs), UniProt Q5XFX0 1-199); test: radioligand binding
[2] = molecular target: T1, purified rat recombinant TG2 protein (transgelin-2) (rat, UniProt Q5XFX0 1-199); test: SPR
[3] = molecular target: T1, purified rat recombinant TG2 protein …; test: SPR; remark: listed apart in the source

T1 sequence (Q5XFX0 whole entry): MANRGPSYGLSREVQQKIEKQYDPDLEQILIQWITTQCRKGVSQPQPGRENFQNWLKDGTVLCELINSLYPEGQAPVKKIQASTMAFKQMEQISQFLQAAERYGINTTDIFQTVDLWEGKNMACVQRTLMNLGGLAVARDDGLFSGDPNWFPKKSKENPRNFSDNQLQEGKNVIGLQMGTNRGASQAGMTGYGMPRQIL
transgelin-2 (TG2) of rat airway smooth muscle cells, sequence (Q5XFX0 whole entry): as above

Kd [1]: 33.4 nM
B1: 125I-labeled MT-2 (natural protein)
chain: not shown
modifications: 125I label (site not stated)

Kd [2]: 110 nM | Kd [3]: 442 nM
B2: 6×His tag MT-2 recombinant protein (rat metallothionein-2) (natural protein)
chain: not shown
